Test results reported in publication PMC4368798, “Protein-Binding RNA Aptamers Affect Molecular Interactions Distantly from Their Binding Sites” (PLoS ONE, 2015).

Molecular target: T1, Human uPAR (uPA receptor), recombinant (human, UniProt Q03405 23-305)
T1 construct: probably a soluble form without the GPI anchor (surmise)
Assay: SPR; uPAR coupled to the sensor surface (1000 RU, 15 ug/mL in 10 mM Na acetate pH 4.5); 4 nM purified uPA variant (pro-uPA, ATF or GFD) passed over with or without RNA aptamer; bound amount after 80 s injection
Conditions: both partners purified

T1 sequence (Q03405 23-305): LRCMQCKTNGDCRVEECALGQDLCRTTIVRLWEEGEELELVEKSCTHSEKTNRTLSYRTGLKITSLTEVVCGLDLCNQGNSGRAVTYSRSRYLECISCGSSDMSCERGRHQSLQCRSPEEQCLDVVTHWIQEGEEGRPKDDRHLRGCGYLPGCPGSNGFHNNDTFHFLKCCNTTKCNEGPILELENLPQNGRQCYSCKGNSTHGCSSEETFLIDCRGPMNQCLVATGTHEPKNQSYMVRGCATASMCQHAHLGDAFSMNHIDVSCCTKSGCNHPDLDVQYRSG

B1: GFD^4-43 domain of uPA (domain or fragment, human, UniProt P00749 24-63, looked up)
chain: LHQVPSNCDCLNGGTCVSNKYFSNIHWCNCPKKFGGQHCE
notes: human uPA epidermal growth factor-like domain, residues 4-43; numbers count on: the mature protein; also called growth factor domain; source: excised from recombinant pro-uPA by Glu-C digestion, purified by size exclusion chromatography
- binding result: binds
